# Target: RNA polymerase II (RNAPII) (human (endogenous in HepG2)) (UniProt P24928)
# Assay: co-sedimentation; HepG2 cell lysate on a 10-40% glycerol gradient in NP-40 lysis buffer (50 mM HEPES pH 7.5, 100 mM NaCl), 50,000 rpm for 11 h at 4°C; fractions detected by Western blotting
substance,measurement,value
RBM22 (endogenous) (from UniProt Q9NW64 1-420) (natural protein),percent of RBM22 linked with RNAPII,40%

# Source: paper PMC11027413
